In US20140087995A1 (published 2014):
Numbered stars: 1 amine (or outer) side, 2 acyl side, 3 side chain; on linkers, the order of the positions; unused ones are H or OH. Bridge positions count the residues as written; N and C are the ends. Side chains are listed from the residue outwards. Ends that are not written are not given here. * marks the point of attachment. C20 diacid = O=C(O)CCCCCCCCCCCCCCCCCCC(=O)*; γGlu = O=C(O)[C@H](CCC(=O)[*:2])N[*:1]

B1: N^ε1-[(4S)-4-carboxy-4-(19-carboxynonadecanoylamino)butanoyl]-[His14,Arg17,Pro21,Pro27,His34]-h-amylin (peptide)
peptide: K([γGlu-C20 diacid])CNTATCATQRLAHFLRHSSPNFGAIPSSTNVGHNTY-NH2
modifications: disulfide 2-7; N-terminus assumed
SMILES: CC[C@H](C)[C@H](NC(=O)[C@H](C)NC(=O)CNC(=O)[C@H](Cc1ccccc1)NC(=O)[C@H](CC(N)=O)NC(=O)[C@@H]1CCCN1C(=O)[C@H](CO)NC(=O)[C@H](CO)NC(=O)[C@H](Cc1c[nH]cn1)NC(=O)[C@H](CCCNC(=N)N)NC(=O)[C@H](CC(C)C)NC(=O)[C@H](Cc1ccccc1)NC(=O)[C@H](Cc1c[nH]cn1)NC(=O)[C@H](C)NC(=O)[C@H](CC(C)C)NC(=O)[C@H](CCCNC(=N)N)NC(=O)[C@H](CCC(N)=O)NC(=O)[C@@H](NC(=O)[C@H](C)NC(=O)[C@@H]1CSSC[C@H](NC(=O)[C@@H](N)CCCCNC(=O)CC[C@H](NC(=O)CCCCCCCCCCCCCCCCCCC(=O)O)C(=O)O)C(=O)N[C@@H](CC(N)=O)C(=O)N[C@@H]([C@@H](C)O)C(=O)N[C@@H](C)C(=O)N[C@@H]([C@@H](C)O)C(=O)N1)[C@@H](C)O)C(=O)N1CCC[C@H]1C(=O)N[C@@H](CO)C(=O)N[C@@H](CO)C(=O)N[C@H](C(=O)N[C@@H](CC(N)=O)C(=O)N[C@H](C(=O)NCC(=O)N[C@@H](Cc1c[nH]cn1)C(=O)N[C@@H](CC(N)=O)C(=O)N[C@H](C(=O)N[C@@H](Cc1ccc(O)cc1)C(N)=O)[C@@H](C)O)C(C)C)[C@@H](C)O
notes: Analogue of human amylin; also called compound 81
B2: N^ε1-[(4S)-4-carboxy-4-(19-carboxynonadecanoylamino)butanoyl]-[His14,Arg17,Pro21,Pro27,His35]-h-amylin (peptide)
peptide: K([γGlu-C20 diacid])CNTATCATQRLAHFLRHSSPNFGAIPSSTNVGSHTY-NH2
modifications: disulfide 2-7; N-terminus assumed
SMILES: CC[C@H](C)[C@H](NC(=O)[C@H](C)NC(=O)CNC(=O)[C@H](Cc1ccccc1)NC(=O)[C@H](CC(N)=O)NC(=O)[C@@H]1CCCN1C(=O)[C@H](CO)NC(=O)[C@H](CO)NC(=O)[C@H](Cc1c[nH]cn1)NC(=O)[C@H](CCCNC(=N)N)NC(=O)[C@H](CC(C)C)NC(=O)[C@H](Cc1ccccc1)NC(=O)[C@H](Cc1c[nH]cn1)NC(=O)[C@H](C)NC(=O)[C@H](CC(C)C)NC(=O)[C@H](CCCNC(=N)N)NC(=O)[C@H](CCC(N)=O)NC(=O)[C@@H](NC(=O)[C@H](C)NC(=O)[C@@H]1CSSC[C@H](NC(=O)[C@@H](N)CCCCNC(=O)CC[C@H](NC(=O)CCCCCCCCCCCCCCCCCCC(=O)O)C(=O)O)C(=O)N[C@@H](CC(N)=O)C(=O)N[C@@H]([C@@H](C)O)C(=O)N[C@@H](C)C(=O)N[C@@H]([C@@H](C)O)C(=O)N1)[C@@H](C)O)C(=O)N1CCC[C@H]1C(=O)N[C@@H](CO)C(=O)N[C@@H](CO)C(=O)N[C@H](C(=O)N[C@@H](CC(N)=O)C(=O)N[C@H](C(=O)NCC(=O)N[C@@H](CO)C(=O)N[C@@H](Cc1c[nH]cn1)C(=O)N[C@H](C(=O)N[C@@H](Cc1ccc(O)cc1)C(N)=O)[C@@H](C)O)C(C)C)[C@@H](C)O
notes: Analogue of human amylin; also called compound 66

How the values were obtained:
[1] = target: T1, rat calcitonin receptor (rat, UniProt P32214 25-516); test: IC50 on rat CTR divided by IC50 on rat amylin receptor (Assays VIII/VI)
T1 construct: whole, on cells; Used as membranes prepared from BHK tk'ts 13 cells transiently transfected with the rat calcitonin receptor (Assay VIII); also called rCTR; rat calcitonin (a) receptor
T1 sequence (looked up): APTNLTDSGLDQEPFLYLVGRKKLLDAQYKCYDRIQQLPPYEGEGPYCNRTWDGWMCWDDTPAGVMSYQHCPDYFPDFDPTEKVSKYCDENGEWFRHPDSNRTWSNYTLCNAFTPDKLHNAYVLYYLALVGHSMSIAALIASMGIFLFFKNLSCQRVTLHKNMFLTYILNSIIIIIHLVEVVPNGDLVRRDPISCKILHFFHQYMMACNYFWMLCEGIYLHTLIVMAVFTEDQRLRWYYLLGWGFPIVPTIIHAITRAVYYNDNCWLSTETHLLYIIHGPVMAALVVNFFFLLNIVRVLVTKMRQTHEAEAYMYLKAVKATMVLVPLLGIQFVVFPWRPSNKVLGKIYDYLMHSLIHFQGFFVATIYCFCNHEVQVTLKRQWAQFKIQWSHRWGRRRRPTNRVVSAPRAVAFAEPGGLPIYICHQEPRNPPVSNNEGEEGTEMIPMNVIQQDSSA

[2] = target: T2, human calcitonin receptor (human, UniProt P30988 25-474); test: IC50 on human CTR divided by IC50 on human amylin receptor (Assays VII/V)
T2 construct: whole, on cells; Used as membranes prepared from a BHK tk'ts 13 cell line stably transfected with the human calcitonin receptor (Assay VII); also called hCTR; hCT
T2 sequence (looked up): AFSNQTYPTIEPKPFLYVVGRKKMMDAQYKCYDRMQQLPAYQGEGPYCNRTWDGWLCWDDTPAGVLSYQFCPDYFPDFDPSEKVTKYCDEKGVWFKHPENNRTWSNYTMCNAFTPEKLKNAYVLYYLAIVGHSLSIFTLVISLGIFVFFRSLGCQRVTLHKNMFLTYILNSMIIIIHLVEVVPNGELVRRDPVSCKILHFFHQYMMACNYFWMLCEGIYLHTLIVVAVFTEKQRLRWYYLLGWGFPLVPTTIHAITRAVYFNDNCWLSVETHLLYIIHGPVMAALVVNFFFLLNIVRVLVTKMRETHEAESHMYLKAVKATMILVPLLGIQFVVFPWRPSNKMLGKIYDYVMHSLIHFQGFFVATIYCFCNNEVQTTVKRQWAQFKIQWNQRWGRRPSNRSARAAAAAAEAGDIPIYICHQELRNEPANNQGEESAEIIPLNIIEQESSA
In short: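 Scintillation proximity competition binding on cell membranes at 35 ng/μL with SPA beads, in 50 mM Hepes pH 7.4, 1 mM CaCl2, 5 mM MgCl₂, 0.1% OA, 0.02% Tween20. Incubated 120 min at 25° C with shaking. IC₅₀ from one-site competition fit.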

[3] = target: T3, rat amylin receptor (rat calcitonin receptor + rat RAMP 3) (rat, UniProt P32214 25-516; Q9JJ73 23-147); test: SPA competition with 125I-rat amylin, membranes of BHK cells with rat CTR + rat RAMP3 (Assay VI)
T3 construct: whole, on cells; Used as membranes prepared from BHK tk'ts 13 cells transiently transfected with rat calcitonin receptor and rat RAMP 3 (Assay VI); also called rAmylin-R; rat amylin 3(a) receptor
T3 sequence (looked up) 1: T1 sequence (looked up)
T3 sequence (looked up) 2: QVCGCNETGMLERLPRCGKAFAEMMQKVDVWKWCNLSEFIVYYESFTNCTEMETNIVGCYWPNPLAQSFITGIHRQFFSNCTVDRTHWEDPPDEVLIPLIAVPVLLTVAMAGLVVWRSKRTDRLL

[4] = target: T1, rat calcitonin receptor; test: SPA competition with 125I-calcitonin, membranes of BHK cells with rat CTR (Assay VIII)

Row | Binder | Ratio rCT/rAmylin binding [1] | Ratio hCT/hAmylin binding [2] | IC50 [3] | IC50 [4]
1 | B1 | 42.9 | 87.2 | 1.42 nM | 61.1 nM
2 | B2 | 35.8 | 45.5 | 0.581 nM | 20.8 nM
